Reference: US7795390B2, “Biological substance nesfatin and its related substances and uses thereof” (Teijin Pharma Limited, priority 2005, dated 2010)

What was measured:
[1] = system: Wistar rats; assay: Intraventricular continuous administration of nesfatin-1 by osmotic pump, food intake and body weight; type: in vivo, rat
Procedure: The administration of nesfatin-1 was carried out into the ventricle by an osmotic pump for 10 consecutive days. Among 8 week-old male Wistar rats (purchased from Nippon SLC), those individuals weighing 200-250 g were used. The rats received intraperitoneal administration of 40 mg/kg body weight of pentobarbital sodium for anesthesia. After the hair was removed from the head, they were fixed in a brain stereotaxic apparatus (David Kopf Instruments, Model 962) and the scalp was incised and a 23G needle (guide cannula) was implanted so that the tip reaches the third ventricle (2.5 mm behind the bregma, 9.5 mm from the surface). One week after implanting the guide cannula, the animals were subjected to the experiment. The osmotic pump used was Alzet's Model 2002. Nesfatin-1 (nesfatin-1 administration group) dissolved in physiological saline that was filter-sterilized with a 0.22 μm Millex GV filter (Millpore Co. Ltd.), or sterilized physiological saline alone (control group) were injected into the osmotic pump immediately before use, and were primed in sterilized physiological saline from the day before use. The osmotic pump to which each sample was connected to a tube connected to the injection cannula, and through the guide cannula previously implanted the injection cannula was fixed so that the tip of the cannula reaches the third ventricle of the rat. In this form of use, the sample is injected to the third ventricle at a flow rate of 12 μl per 24 hours, and in the nesfatin-1 administration group, it is equivalent to 5 pmol of nesfatin-1 per day administered to the ventricle. […] The measurement of the amount of food intake started from the day after the cannula and the osmotic pump were implanted, and the weight of the residual food was measured at 9 a.m. every day, and by determining the difference from the weight of the food on the previous day, the amount of food intake of the day (24 hours) was calculated. From day 6 after the start of administration, body weight was measured at the time of measuring the amount of food intake, and changes in body weight were also recorded.

[2] = system: ICR mice; assay: Intraperitoneal administration of nesfatin-1 to ICR mice, food intake; type: in vivo, mouse; conditions: 0-3 hours
Procedure: The experimental animal was 7 week-old male ICR mice purchased from Japan SLC, Inc., and were housed after purchase in a cycle of 12 hours of the light period from 6 a.m. to 6 p.m. and 12 hours of the dark period from 6 p.m. to 6 a.m. the next morning with free access to a pellet food (Nippon Clea, CE-2), kept at 22° C., and housing was continued in a similar condition during the experiment period. The mice purchased were subjected to preliminary housing for over one week, individuals weighing 35-40 g were selected among 8 to 9 week-old individuals and were used in the experiment.
The sample used in the administration was the recombinant mouse nesfatin-1 prepared in Working Example 16 dissolved in 200 μl of physiological saline so as to contain 2 nmol, 10 nmol or 50 nmol, and as the control sample, physiological saline (Saline) alone was used. Using a tuberculin syringe equipped with a 25G needle, 200 μl each of the sample was administered once into the abdominal cavity of each mouse (5 animals per group), and the time of administration was immediately before the start (6 p.m.) of the dark period.
Each mouse that received administration was placed in an individual cage, and during 0-3 hours after the administration the weight decreased of the pellet food was measured to determine the amount of food intake. For testing of significant difference, analysis of variance was used.

[3] = system: C57BL/6J mice; assay: Intraperitoneal administration of nesfatin-1 to c57BL/6J mice, food intake and blood biochemical parameters; type: in vivo; conditions: recombinant mouse nesfatin-1 10 nmol ip; 0-3 hours; vs saline
Procedure: As experimental animals, 7 week-old male c57BL/6J mice were purchased from Nippon Clea, and were housed in a cycle of 12 hours of the light period from 6 a.m. to 6 p.m. and […] of the dark period from 6 p.m. to 6 a.m. the next morning and were allowed free access to a pellet food (Nippon Clea, CE-2), and kept at 22° C.
Into the abdominal cavity of the c57BL/6J mice, 10 nmol of recombinant mouse nesfatin-1 prepared in Working Example 16 dissolved in 100 μl of physiological saline was administered, and as the control sample physiological saline alone was used. Using a tuberculin syringe equipped with a 26G needle, 100 μl each of the sample was administered once into the abdominal cavity of each mouse (5 animals per group), and the time of administration was immediately before the start (6 p.m.) of the dark period.
Each mouse that received administration was placed in an individual cage, and during 0-3 hours after the administration the weight decreased of the pellet food was measured to determine the amount of food intake. Also, 3 hours after the administration each mouse was sacrificed by decapitation to collect whole blood, and serum was collected therefrom. For the serum, the contents of glucose, total cholesterol and triglyceride were measured using commercial reagents for determination (KYOWA MEDEX, Determiner L GLUII, Determiner L TCII, Determiner L TGII).

[4] = 5 pmol per day, osmotic pump, third ventricle, 10 consecutive days, vs saline

B1: nesfatin-1: 82-residue peptide, amino acid Nos. 25 to 106 of nesfatin (SEQ ID NO: 15), solid-phase synthesis (peptide, listed as Rattus norvegicus)
chain: VPIDVDKTKVHNVEPVESARIEPPDTGLYYDEYLKQVIEVLETDPHFREKLQKADIEEIRSGRLSQELDLVSHKVRTRLDEL
With B1 the “amount of food intake of the day (24 hours)” value [1, 4] was “a decrease in the amount of food intake was noted from day 1”, the “rate of increase in body weight” value [1, 4] was “significantly declined” and the “food intake and/or body weight gain” value ([1]; recombinant highly purified nesfatin-1 (Working Example 16), intraventricular as in Working Example 13) was “the effect of suppressing food intake and/or suppressing body weight gain was noted”. The “amount of food intake” value ([2]; recombinant mouse nesfatin-1 2 nmol per mouse ip, vs Saline) was “decreases in the amount of food intake”, the “amount of food intake” value ([2]; recombinant mouse nesfatin-1 10 nmol per mouse ip, p<0.05) was “statistically significant decreases in the amount of food intake” and the “amount of food intake” value ([2]; recombinant mouse nesfatin-1 50 nmol per mouse ip, p<0.005) was “statistically significant decreases in the amount of food intake”. For the same molecule, the “amount of food intake” value [3] was “significantly reduced”.
